In patent US20210371505A1:

Biological target: Hemagglutinin of A/Wisconsin/67/2005 (H3N2) overexpressed on 3T3 cells (Influenza A virus A/Wisconsin/67/2005 (H3N2))
Test: cell-based or functional assay

B1: H1H14612N2 (antibody, V domains shown)
VH: EVQLVESGGGLVKPGGSLRLSCAASGFSFSGFSMNWVRQAPGKGLEWVSSISTSGNYMYYADSVKGRFTISRDNAKKSFSLQMNSLRAEDSAIYYCARGGGYNWNLFDYWGQGSLVTVSS
VL: EIVLTQSPGTLSLSPGERATLSCRASQSLNSNYLAWYQQKPGQAPRLLIYGASSRATGIPDRFSGSGSGADFTLTISRLESEDFAVYYCQQYGNSPLTFGGGTKVEIK
EC50, ADCC with human donor PBMCs (CytoTox-Glo): 0.176 nM
EC50, FcγRIIIA activation in the ADCC-Glo reporter bioassay (Promega): 0.688 nM
